From publication PMC6941993 (2020) come the findings set out here.

As usually defined, the Kd is the constant that tells how readily two partners part at equilibrium. Higher therefore signals a looser complex.

For this assay, the target named is stand-alone apical domain (sAD) designed from White-throated woodrat TfR1 (Neotoma albigula (White-throated …, N-linked glycan at Asn251 seen in the crystal)); two putative N-glycosylation sites (Asn204, Asn251), both partially glycosylated). The assay can be described thus: SPR.

B1: GP1_(SBAV)–Fc (Fc fusion)
chain: DHPTSCMVNHSTYYVHENKNATWCLEVSVTDVTLLMAEHDRQVLNNLSNCVHPAVEHRSRMVGLLEWIFRALKYDFNHDPTPLCQKQTSTVNETRVQINITEGFGSHGFEDTILQRLGVLFGSRIAFSNIQDLGKKRFLLIRNSTWKNQCEM
In turn, B1 had a Kd of 0.063 µM.

B2: GP1_(GTOV)–Fc (Fc fusion)
chain: ELPSLCRVNNSYSLIRLSHNSNQALSVEYVDVHPVLCSSSPTILDNYTQCIKGSPEFDWILGWTIKGLGHDFLRDPRICCEPKKTTNAEFTFQLNLTDSPETHHYRSKIEVGIRHLFGNYITNDSYSKMSVVMRNTTWEGQCSN
For the molecule B2, binding was characterised by a dissociation constant (Kd) of 0.36 µM.
